T1: hu-IL-7Rγc subunit (human), P31785
T1 chain: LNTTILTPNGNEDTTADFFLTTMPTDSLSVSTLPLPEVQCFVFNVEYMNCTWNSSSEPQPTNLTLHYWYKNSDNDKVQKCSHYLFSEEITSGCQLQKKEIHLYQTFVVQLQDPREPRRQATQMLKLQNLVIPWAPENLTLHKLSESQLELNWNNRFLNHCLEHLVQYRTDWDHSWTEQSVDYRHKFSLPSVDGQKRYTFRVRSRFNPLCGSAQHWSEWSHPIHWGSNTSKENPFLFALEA

By IC50 is commonly meant the point on the concentration scale where inhibition reaches its midpoint.

The target of the experiment is T1, hu-IL-7Rγc subunit (human), P31785.
RTEVECEDWEGVELCWL (modifications not checked) [SEQ ID NO 322] returned a half-maximal inhibitory concentration (IC50) of under 100 µM.
Then PEGREVVVCRDWYGVELCWQ (modifications not checked) [SEQ ID NO 248], with under 100 µM.
The value for KSQVECQDWEGVELCWVVSE (modifications not checked) [SEQ ID NO 285] was under 100 µM.
LNRSVWIECEEYEGVELCWL (modifications not checked) [SEQ ID NO 280] had a 50% inhibitory concentration (IC50) of under 100 µM.
Then GQGREVVVCHDWYGVELCWQ (modifications not checked) [SEQ ID NO 264], with under 100 µM.
Then GNDDSYIVCEEWKGVELCWI (modifications not checked) [SEQ ID NO 278], with under 100 µM; and ERPRSFIECQEWEGVELCWL (modifications not checked) [SEQ ID NO 272], with under 100 µM; and VECQEWGGVELCWC (modifications not checked) [SEQ ID NO 254], with under 100 µM.
The value for DFERSYVVCQDWDGVELCWI (modifications not checked) [SEQ ID NO 257] was under 100 µM; that for SAPERWVECEDWQGVELCWV (modifications not checked) [SEQ ID NO 259] was under 100 µM.
Consider RPQIECQEWQGVELCWTREE (modifications not checked) [SEQ ID NO 287], for which the IC50 is under 100 µM.
Then DVVCQNWDGVDLCWH (modifications not checked) [SEQ ID NO 266], with under 100 µM; and TANQTVVECQVWGGVELCWQ (modifications not checked) [SEQ ID NO 253], with under 100 µM.
Then GDRPKEVVCEDWKGVELCWI (modifications not checked) [SEQ ID NO 271], with under 100 µM; and IWGRTVVECQDWEGVELCWQ (modifications not checked) [SEQ ID NO 249], with under 100 µM.
The value for DWRRSVVECQDWYGVELCWQ (modifications not checked) [SEQ ID NO 265] was under 100 µM; that for IVCEDWRGVELCWI (modifications not checked) [SEQ ID NO 269] was under 100 µM.
HEAREVVVCQDWYGVELCWQ (modifications not checked) [SEQ ID NO 251] returned a concentration for half-maximal inhibition (IC50) of under 100 µM.
The value for TWNMSELECQDWNGVEICWH (modifications not checked) [SEQ ID NO 277] was under 100 µM.
The value for IVCEEWRGVELCWL (modifications not checked) [SEQ ID NO 256] was under 100 µM; that for DVVCQNWEGVDLCWH (modifications not checked) [SEQ ID NO 262] was under 100 µM; that for SAGRQEVVCQDWNGVELCWI (modifications not checked) [SEQ ID NO 263] was under 100 µM.
The value for TLGRTVVECQDWGGVELCWQ (modifications not checked) [SEQ ID NO 267] was under 100 µM; that for IECEEWRGVELCWQ (modifications not checked) [SEQ ID NO 247] was under 100 µM; that for KITVECQDWDGVELCWPTWI (modifications not checked) [SEQ ID NO 286] was under 100 µM.
As for ANQNTVVECQDWHGVELCWQ (modifications not checked) [SEQ ID NO 274], the half-maximal inhibitory concentration (IC50) was under 100 µM.

These data come from patent publication US20240100159A1, “USE OF IL-7R-ALPHA-GAMMA AGONIST PEPTIDES IN CELL MANUFACTURING” (MEDIKINE, INC., priority 2022, published 2024).
